Data: patent US20240124607A1 (Merck Sharp & Dohme, published 2024)

T1: Human CEACAM5 V83A (human, UniProt P06731 35-685, limits assumed)
T1 sequence: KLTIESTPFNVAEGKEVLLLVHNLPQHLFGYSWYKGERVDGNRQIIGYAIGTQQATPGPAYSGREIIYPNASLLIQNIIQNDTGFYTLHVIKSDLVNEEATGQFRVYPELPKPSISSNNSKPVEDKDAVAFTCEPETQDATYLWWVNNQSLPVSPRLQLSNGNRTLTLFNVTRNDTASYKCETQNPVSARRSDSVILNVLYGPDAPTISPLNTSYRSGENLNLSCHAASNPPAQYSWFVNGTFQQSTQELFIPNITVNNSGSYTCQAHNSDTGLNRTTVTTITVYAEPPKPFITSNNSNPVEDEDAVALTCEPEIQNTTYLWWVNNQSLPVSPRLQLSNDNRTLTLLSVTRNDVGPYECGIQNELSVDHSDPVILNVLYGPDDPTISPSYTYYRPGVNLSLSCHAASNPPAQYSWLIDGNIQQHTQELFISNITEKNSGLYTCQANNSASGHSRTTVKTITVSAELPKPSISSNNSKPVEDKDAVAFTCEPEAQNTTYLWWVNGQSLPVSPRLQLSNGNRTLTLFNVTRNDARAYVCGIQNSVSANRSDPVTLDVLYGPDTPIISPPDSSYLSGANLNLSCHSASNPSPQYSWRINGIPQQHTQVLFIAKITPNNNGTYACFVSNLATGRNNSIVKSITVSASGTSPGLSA

T2: Human CEACAM5 I80V V83A I112V I113T (human, UniProt P06731 35-685, limits assumed)
T2 chain: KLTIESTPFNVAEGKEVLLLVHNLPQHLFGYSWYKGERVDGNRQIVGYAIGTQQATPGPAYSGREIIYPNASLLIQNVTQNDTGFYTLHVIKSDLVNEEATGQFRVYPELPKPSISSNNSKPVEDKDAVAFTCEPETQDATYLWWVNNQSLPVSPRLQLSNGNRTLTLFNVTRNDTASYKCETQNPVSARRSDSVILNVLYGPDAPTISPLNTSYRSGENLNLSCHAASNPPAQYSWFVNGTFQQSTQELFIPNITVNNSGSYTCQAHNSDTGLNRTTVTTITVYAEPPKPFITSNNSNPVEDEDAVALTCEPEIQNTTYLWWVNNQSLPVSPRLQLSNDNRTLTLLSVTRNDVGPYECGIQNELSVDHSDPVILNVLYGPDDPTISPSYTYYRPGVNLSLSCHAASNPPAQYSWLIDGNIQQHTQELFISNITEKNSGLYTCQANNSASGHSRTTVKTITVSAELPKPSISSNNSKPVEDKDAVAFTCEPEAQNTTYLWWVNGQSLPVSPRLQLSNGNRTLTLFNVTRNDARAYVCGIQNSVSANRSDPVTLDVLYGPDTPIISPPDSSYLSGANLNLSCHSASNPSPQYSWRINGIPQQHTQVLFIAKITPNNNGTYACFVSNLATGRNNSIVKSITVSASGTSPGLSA

T3: Human CEACAM5 (K398) (human, UniProt P06731 35-685, limits assumed)
T3 construct: also called K398 allele
T3 sequence: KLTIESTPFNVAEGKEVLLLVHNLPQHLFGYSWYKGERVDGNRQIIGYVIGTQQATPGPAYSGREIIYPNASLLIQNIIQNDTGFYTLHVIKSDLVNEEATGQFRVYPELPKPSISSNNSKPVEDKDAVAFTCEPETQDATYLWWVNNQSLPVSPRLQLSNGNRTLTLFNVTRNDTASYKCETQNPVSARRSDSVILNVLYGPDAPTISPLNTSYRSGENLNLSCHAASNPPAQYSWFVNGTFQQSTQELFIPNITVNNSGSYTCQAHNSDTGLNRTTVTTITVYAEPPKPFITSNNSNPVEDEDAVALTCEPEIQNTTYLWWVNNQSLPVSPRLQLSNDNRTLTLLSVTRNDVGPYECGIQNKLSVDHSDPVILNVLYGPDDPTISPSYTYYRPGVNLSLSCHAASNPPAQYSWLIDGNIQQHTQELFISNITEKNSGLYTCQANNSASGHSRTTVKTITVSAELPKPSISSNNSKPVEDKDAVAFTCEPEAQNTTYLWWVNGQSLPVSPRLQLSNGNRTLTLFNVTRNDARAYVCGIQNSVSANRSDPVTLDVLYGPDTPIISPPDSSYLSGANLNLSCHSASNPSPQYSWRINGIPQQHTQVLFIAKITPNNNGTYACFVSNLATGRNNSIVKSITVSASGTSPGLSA

T4: Human CEACAM5 I113T (human, UniProt P06731 35-685, limits assumed)
T4 sequence: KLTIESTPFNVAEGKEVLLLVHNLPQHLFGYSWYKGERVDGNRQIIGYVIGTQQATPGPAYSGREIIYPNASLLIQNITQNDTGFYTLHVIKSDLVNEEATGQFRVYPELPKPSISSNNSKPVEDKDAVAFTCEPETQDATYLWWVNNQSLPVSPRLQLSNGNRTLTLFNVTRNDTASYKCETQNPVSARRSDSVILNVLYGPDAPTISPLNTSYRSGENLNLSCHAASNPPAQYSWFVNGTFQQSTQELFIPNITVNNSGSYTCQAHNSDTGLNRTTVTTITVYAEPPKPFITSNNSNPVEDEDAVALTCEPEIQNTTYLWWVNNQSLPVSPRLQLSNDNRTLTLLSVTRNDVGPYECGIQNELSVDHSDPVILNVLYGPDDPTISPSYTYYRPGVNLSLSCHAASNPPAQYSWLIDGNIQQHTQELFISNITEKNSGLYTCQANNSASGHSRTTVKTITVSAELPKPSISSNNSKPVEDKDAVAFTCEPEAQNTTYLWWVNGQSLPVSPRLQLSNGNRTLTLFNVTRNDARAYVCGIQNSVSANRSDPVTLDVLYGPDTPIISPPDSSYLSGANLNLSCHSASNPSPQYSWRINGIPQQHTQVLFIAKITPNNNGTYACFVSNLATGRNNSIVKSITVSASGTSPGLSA

B1: AB0466 F3' CEACAM5 TriNKET (bispecific antibody, human IgG1, kappa)
chain: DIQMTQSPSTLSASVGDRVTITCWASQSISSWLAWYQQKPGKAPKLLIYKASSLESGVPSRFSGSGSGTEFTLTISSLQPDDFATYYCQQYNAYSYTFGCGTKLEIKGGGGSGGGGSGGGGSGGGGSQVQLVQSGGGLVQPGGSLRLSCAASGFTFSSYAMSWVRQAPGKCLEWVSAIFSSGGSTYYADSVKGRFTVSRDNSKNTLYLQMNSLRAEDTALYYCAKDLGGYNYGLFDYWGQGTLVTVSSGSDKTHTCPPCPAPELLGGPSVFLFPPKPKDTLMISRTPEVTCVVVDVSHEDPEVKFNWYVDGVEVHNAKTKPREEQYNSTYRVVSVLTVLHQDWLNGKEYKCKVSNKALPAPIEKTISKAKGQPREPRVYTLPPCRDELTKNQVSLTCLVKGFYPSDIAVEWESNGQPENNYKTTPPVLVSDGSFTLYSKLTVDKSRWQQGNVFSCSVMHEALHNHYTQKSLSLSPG
heavy: EVQLVESGGGLVKPGGSLRLSCAASGFTFSSYSMNWVRQAPGKGLEWVSSISSSSSYIYYADSVKGRFTISRDNAKNSLYLQMNSLRAEDTAVYYCARGAPIGAAAGWFDPWGQGTLVTVSSASTKGPSVFPLAPSSKSTSGGTAALGCLVKDYFPEPVTVSWNSGALTSGVHTFPAVLQSSGLYSLSSVVTVPSSSLGTQTYICNVNHKPSNTKVDKKVEPKSCDKTHTCPPCPAPELLGGPSVFLFPPKPKDTLMISRTPEVTCVVVDVSHEDPEVKFNWYVDGVEVHNAKTKPREEQYNSTYRVVSVLTVLHQDWLNGKEYKCKVSNKALPAPIEKTISKAKGQPREPQVCTLPPSRDELTENQVSLTCLVKGFYPSDIAVEWESNGQPENNYKTTPPVLDSDGSFFLYSWLTVDKSRWQQGNVFSCSVMHEALHNHYTQKSLSLSPG
light: DIQMTQSPSSVSASVGDRVTITCRASQGISSWLAWYQQKPGKAPKLLIYAASSLQSGVPSRFSGSGSGTDFTLTISSLQPEDFATYYCQQGVSFPRTFGGGTKVEIKRTVAAPSVFIFPPSDEQLKSGTASVVCLLNNFYPREAKVQWKVDNALQSGNSQESVTEQDSKDSTYSLSSTLTLSKADYEKHKVYACEVTHQGLSSPVTKSFNRGEC
B2: AB0411 F3' CEACAM5 TriNKET (bispecific antibody, human IgG1, kappa)
chain: DIQLTQSPATLSVSPGERATLSCRASQSVSSSYLAWYQQKPGQAPRLLIYGASSRATGIPDRFSGSGSGTDFTLTISRLEPEDFAVYYCQQYNNWPLTFGCGTKVEIKGGGGSGGGGSGGGGSGGGGSQVQLVQSGGGLVQPGGSLRLSCAASGFTFTSYAMSWVRQAPGKCLEWVSAISGTGDSTFYADSVKGRFTFSRDNSKNTLYLQMNSLRAEDTAVYYCAKDLGWLQYGLFDYWGQGTLVTVSSGSDKTHTCPPCPAPELLGGPSVFLFPPKPKDTLMISRTPEVTCVVVDVSHEDPEVKFNWYVDGVEVHNAKTKPREEQYNSTYRVVSVLTVLHQDWLNGKEYKCKVSNKALPAPIEKTISKAKGQPREPRVYTLPPCRDELTKNQVSLTCLVKGFYPSDIAVEWESNGQPENNYKTTPPVLVSDGSFTLYSKLTVDKSRWQQGNVFSCSVMHEALHNHYTQKSLSLSPG
heavy: EVQLVESGGGLVKPGGSLRLSCAASGFTFSSYSMNWVRQAPGKGLEWVSSISSSSSYIYYADSVKGRFTISRDNAKNSLYLQMNSLRAEDTAVYYCARGAPIGAAAGWFDPWGQGTLVTVSSASTKGPSVFPLAPSSKSTSGGTAALGCLVKDYFPEPVTVSWNSGALTSGVHTFPAVLQSSGLYSLSSVVTVPSSSLGTQTYICNVNHKPSNTKVDKKVEPKSCDKTHTCPPCPAPELLGGPSVFLFPPKPKDTLMISRTPEVTCVVVDVSHEDPEVKFNWYVDGVEVHNAKTKPREEQYNSTYRVVSVLTVLHQDWLNGKEYKCKVSNKALPAPIEKTISKAKGQPREPQVCTLPPSRDELTENQVSLTCLVKGFYPSDIAVEWESNGQPENNYKTTPPVLDSDGSFFLYSWLTVDKSRWQQGNVFSCSVMHEALHNHYTQKSLSLSPG
light: DIQMTQSPSSVSASVGDRVTITCRASQGISSWLAWYQQKPGKAPKLLIYAASSLQSGVPSRFSGSGSGTDFTLTISSLQPEDFATYYCQQGVSFPRTFGGGTKVEIKRTVAAPSVFIFPPSDEQLKSGTASVVCLLNNFYPREAKVQWKVDNALQSGNSQESVTEQDSKDSTYSLSSTLTLSKADYEKHKVYACEVTHQGLSSPVTKSFNRGEC
B3: AB0621 F3' CEACAM5 TriNKET (bispecific antibody, human IgG1, kappa)
chain: DIVMTQSPDSLAVSLGERATINCKSSHSLLYGNFQNNYLAWYQQKPGQPPKLLIYWASTRESGVPDRFSGSGSGTDFTLTISSLQAEDVAVYYCQQYYSYPYTFGCGTKLEIKGGGGSGGGGSGGGGSGGGGSQVQLVQSGAEVKKPGASVKVSCKASGYTFTAYTIHWVRQAPGQCLEWMGYINPSSGYTEYNQKFKDRTTLTADTSISTAYMELSRLRSDDTAVYYCTREGGLLWFDYWGQGTLVTVSSGSDKTHTCPPCPAPELLGGPSVFLFPPKPKDTLMISRTPEVTCVVVDVSHEDPEVKFNWYVDGVEVHNAKTKPREEQYNSTYRVVSVLTVLHQDWLNGKEYKCKVSNKALPAPIEKTISKAKGQPREPRVYTLPPCRDELTKNQVSLTCLVKGFYPSDIAVEWESNGQPENNYKTTPPVLVSDGSFTLYSKLTVDKSRWQQGNVFSCSVMHEALHNHYTQKSLSLSPG
heavy: EVQLVESGGGLVKPGGSLRLSCAASGFTFSSYSMNWVRQAPGKGLEWVSSISSSSSYIYYADSVKGRFTISRDNAKNSLYLQMNSLRAEDTAVYYCARGAPIGAAAGWFDPWGQGTLVTVSSASTKGPSVFPLAPSSKSTSGGTAALGCLVKDYFPEPVTVSWNSGALTSGVHTFPAVLQSSGLYSLSSVVTVPSSSLGTQTYICNVNHKPSNTKVDKKVEPKSCDKTHTCPPCPAPELLGGPSVFLFPPKPKDTLMISRTPEVTCVVVDVSHEDPEVKFNWYVDGVEVHNAKTKPREEQYNSTYRVVSVLTVLHQDWLNGKEYKCKVSNKALPAPIEKTISKAKGQPREPQVCTLPPSRDELTENQVSLTCLVKGFYPSDIAVEWESNGQPENNYKTTPPVLDSDGSFFLYSWLTVDKSRWQQGNVFSCSVMHEALHNHYTQKSLSLSPG
light: DIQMTQSPSSVSASVGDRVTITCRASQGISSWLAWYQQKPGKAPKLLIYAASSLQSGVPSRFSGSGSGTDFTLTISSLQPEDFATYYCQQGVSFPRTFGGGTKVEIKRTVAAPSVFIFPPSDEQLKSGTASVVCLLNNFYPREAKVQWKVDNALQSGNSQESVTEQDSKDSTYSLSSTLTLSKADYEKHKVYACEVTHQGLSSPVTKSFNRGEC

Columns and labels:
Experiment in all cases: SPR, 37C, pH 7.4
Human CEACAM5 V83A = target: T1, Human CEACAM5 V83A
[1] = target: T2, Human CEACAM5 I80V V83A I112V I113T
Human CEACAM5 (K398) = target: T3, Human CEACAM5 (K398)
Human CEACAM5 I113T = target: T4, Human CEACAM5 I113T

Binder	Kd (Human CEACAM5 V83A) [nM]	kon (Human CEACAM5 V83A) [M⁻¹ s⁻¹]	Kd [1] [nM]	kon [1] [M⁻¹ s⁻¹]	Kd (Human CEACAM5 (K398)) [nM]	kon (Human CEACAM5 (K398)) [M⁻¹ s⁻¹]	Kd (Human CEACAM5 I113T) [nM]	kon (Human CEACAM5 I113T) [M⁻¹ s⁻¹]
B1	66	140000	61	590000	6.3	220000	8.4	160000
B2	8.2	180000	6.4	260000	1.4	270000	1.9	210000
B3	34	44000	22	64000	19	86000	29	47000
